From US20170233485A1 (published 2017)

B1: Agly hAKH3 IgG4P/IgG1 (antibody, V domains shown)
VH: EVQLVQSGAEVKKPGASVKVSCKASGYTFTTFPIEWVRQAPGQGLEWMGNFHPYNDDTKYNEKFKGRVTLTADKSTSTAYMELSRLRSEDTAVYYCARRGKLPFDSWGQGTTVTVSS
VL: DIQMTQSPSSLSASVGDRVTISCRASQDISNYLNWYQQKPGKVPKLLIYFTSRLRSGVPSRFSGSGSGTDYTLTISSLQPEDVATYYCQQDRKLPWTFGQGTKLEIK
B2: Exemplary Anti-CD40 Antibody 1 (antibody)
heavy: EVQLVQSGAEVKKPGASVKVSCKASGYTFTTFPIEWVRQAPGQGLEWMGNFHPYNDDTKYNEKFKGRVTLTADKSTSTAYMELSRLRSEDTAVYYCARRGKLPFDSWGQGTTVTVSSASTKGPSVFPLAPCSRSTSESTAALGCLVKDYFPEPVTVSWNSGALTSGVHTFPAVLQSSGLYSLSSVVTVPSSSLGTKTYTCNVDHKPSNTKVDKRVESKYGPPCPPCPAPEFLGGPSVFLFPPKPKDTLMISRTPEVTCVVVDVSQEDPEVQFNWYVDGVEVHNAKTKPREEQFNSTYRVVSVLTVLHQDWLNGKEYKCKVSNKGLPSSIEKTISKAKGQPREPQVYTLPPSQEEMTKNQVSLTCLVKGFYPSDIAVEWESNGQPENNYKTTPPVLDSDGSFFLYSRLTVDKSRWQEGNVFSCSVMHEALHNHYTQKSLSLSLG
light: DIQMTQSPSSLSASVGDRVTISCRASQDISNYLNWYQQKPGKVPKLLIYFTSRLRSGVPSRFSGSGSGTDYTLTISSLQPEDVATYYCQQDRKLPWTFGQGTKLEIKRTVAAPSVFIFPPSDEQLKSGTASVVCLLNNFYPREAKVQWKVDNALQSGNSQESVTEQDSKDSTYSLSSTLTLSKADYEKHKVYACEVTHQGLSSPVTKSFNRGEC
modifications: Alexa647 conjugate in some whole-blood assays; N-linked glycan on the heavy chain; neither is carried by the letters.

Columns and labels:
[1] = target: T1, cynomolgus monkey CD40 (cell surface); test: flow cytometry, B cells in whole blood; geometric mean, A647-conjugated
T1 chain: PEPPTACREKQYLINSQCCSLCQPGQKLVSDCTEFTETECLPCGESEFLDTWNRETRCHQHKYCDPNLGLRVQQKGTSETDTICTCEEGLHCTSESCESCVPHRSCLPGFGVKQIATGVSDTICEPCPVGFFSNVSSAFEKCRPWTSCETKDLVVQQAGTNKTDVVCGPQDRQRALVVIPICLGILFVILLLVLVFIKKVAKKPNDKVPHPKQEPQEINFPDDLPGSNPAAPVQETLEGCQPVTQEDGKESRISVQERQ

[2] = target: T2, human CD40 (cell surface) (UniProt P25942 20-277); test: as above
[3] = target: T2, human CD40 (cell surface); test: flow cytometry; 4-P fit parameter C
[4] = target: T2, human CD40 (cell surface); test: flow cytometry, B cells in whole blood; A647-conjugated
[5] = target: T1, cynomolgus monkey CD40 (cell surface); test: flow cytometry, CHO-CD40; avid
[6] = target: T2, human CD40 (cell surface); test: flow cytometry, CHO-CD40; avid
[7] = target: T3, rhesus monkey CD40 (cell surface) (rhesus monkey, UniProt F6SNI1 21-278); test: flow cytometry, CHO-CD40; avid
T3 chain: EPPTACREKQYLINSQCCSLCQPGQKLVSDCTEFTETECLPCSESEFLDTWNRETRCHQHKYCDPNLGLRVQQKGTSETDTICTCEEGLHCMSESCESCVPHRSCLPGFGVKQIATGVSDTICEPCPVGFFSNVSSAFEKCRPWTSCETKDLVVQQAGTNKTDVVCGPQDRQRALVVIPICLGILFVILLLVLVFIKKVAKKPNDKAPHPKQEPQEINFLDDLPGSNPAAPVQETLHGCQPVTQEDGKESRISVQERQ

[8] = target: human FcγR CD16a V158-GST fusion protein (human, UniProt P08637 17-208); test: ALPHAscreen competition
Chain of human FcγR CD16a V158-GST fusion protein (P08637 17-208 F176V): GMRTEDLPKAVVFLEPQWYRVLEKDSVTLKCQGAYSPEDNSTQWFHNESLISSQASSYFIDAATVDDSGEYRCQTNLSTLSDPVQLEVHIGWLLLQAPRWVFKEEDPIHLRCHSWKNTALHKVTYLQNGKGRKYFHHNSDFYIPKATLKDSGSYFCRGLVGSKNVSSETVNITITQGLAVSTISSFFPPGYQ

[9] = target: T4, human FcγR CD64-GST fusion protein (human, UniProt P12314 16-292); test: ALPHAscreen competition
T4 chain: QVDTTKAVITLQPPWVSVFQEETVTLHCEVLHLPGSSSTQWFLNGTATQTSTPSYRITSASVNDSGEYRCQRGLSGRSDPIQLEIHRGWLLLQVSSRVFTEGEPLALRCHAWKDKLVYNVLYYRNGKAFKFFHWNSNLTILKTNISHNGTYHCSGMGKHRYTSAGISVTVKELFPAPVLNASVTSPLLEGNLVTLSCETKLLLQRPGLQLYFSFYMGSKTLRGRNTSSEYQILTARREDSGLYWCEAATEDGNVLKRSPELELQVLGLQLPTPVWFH

[10] = target: T5, human FcγR CD32b-GST fusion protein (human, UniProt P31994 43-217); test: ALPHAscreen competition
T5 chain: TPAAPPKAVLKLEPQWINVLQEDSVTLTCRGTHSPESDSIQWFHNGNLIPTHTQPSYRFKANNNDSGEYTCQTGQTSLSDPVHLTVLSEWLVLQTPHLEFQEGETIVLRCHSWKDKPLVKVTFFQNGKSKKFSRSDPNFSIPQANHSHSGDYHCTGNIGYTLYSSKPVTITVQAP

[11] = target: T6, human FcγR CD32a R131-GST fusion protein (human, UniProt P12318 34-217); test: ALPHAscreen competition
T6 chain: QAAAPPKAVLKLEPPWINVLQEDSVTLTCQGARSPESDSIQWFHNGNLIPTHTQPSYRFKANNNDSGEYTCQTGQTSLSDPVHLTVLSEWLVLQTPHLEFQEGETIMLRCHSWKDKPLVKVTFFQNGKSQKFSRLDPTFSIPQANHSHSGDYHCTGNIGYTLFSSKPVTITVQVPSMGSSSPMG

Row | EC50 [1] | EC50 [2] | EC50 [3] | EC50 [4] | EC50 [5] | EC50 [6] | EC50 [7] | IC50 [8] | IC50 [9] | IC50 [10] | IC50 [11] | Binder
1 | 0.109 µg/mL | 0.0626 µg/mL | 0.0804 µg/mL | 0.0777 µg/mL | 0.131 µg/mL | 0.0895 µg/mL | 0.249 µg/mL | – | – | – | – | B1
2 | – | – | – | – | – | – | – | 680 µg/mL | 14.7 µg/mL | 282 µg/mL | 118 µg/mL | B2
